Source: paper PMC4967898, “Peptides interfering with protein-protein interactions in the ethylene signaling pathway delay tomato fruit ripening” (Scientific Reports, 2016)

Target: T1, LeETR1 (Solanum lycopersicum, UniProt Q41342)
T1 construct: made in house; host or cells: E. coli
T1 sequence (Q41342 1-754): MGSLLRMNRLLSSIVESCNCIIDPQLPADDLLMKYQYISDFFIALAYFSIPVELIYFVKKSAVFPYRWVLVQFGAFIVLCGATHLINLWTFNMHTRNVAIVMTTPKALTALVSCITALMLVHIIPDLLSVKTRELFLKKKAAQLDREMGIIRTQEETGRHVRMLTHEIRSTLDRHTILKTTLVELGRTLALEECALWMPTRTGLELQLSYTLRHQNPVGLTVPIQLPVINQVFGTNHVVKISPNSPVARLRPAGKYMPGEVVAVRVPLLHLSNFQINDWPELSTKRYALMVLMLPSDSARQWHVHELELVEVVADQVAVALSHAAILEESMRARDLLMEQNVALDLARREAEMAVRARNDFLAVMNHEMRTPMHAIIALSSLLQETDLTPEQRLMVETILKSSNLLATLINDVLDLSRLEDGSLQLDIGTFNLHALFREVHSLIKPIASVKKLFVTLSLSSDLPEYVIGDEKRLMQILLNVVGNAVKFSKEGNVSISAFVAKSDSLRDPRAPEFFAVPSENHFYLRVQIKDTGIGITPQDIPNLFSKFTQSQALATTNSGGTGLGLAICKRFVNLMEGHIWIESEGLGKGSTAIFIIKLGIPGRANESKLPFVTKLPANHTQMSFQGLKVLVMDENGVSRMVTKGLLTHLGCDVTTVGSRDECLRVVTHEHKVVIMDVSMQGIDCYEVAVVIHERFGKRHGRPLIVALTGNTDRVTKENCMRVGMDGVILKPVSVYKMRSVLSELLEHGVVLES
Test: MST interaction of labeled LeETR1 with LeEIN2^462–1316
Format: binding, tomato
Conditions: 0.4 μM LeETR1 labeled with Alexa Fluor 488 succinimidyl-ester, LeEIN2^462–1316 4.69 nM to 9.6 μM, 50 mM Tris-HCl pH 8.0, 300 mM NaCl, 0.015% (w/v) Fos-Choline-16, 80% MST power, independent triplicates, mean +/− standard deviation, read-out: Kd of LeEIN2-LeETR1 complex formation
Text: Protein-protein interaction of LeEIN2 and LeETR1 was studied by microscale thermophoresis (MST). Thermophoresis, the motion of molecules in a temperature gradient, strongly depends on the hydration-shell, the charge and the size of the moving molecules. Typically, at least one of these features changes when a protein-protein interaction occurs. Thus, MST represents a highly sensitive and reliable tool to study protein-protein interactions. By recording the motion of a fluorescence-labeled molecule in the presence of increasing concentrations of a putative binding partner, the dissociation constant (Kd) reflecting the affinity of the interaction and the stability of the complex can be calculated. Recombinant LeETR1 was labeled with the fluorescent dye Alexa Fluor 488 and 0.4 μM of labeled LeETR1 was mixed with increasing concentrations of LeEIN2^462–1316 until saturation was reached (9.6 μM as final concentration). Binding of receptor and EIN2 was observed as a clear and strong response in the MST signal. […]
Figure 1 Interaction studies of tomato ETR1 and EIN2 via MST. […] Normalized fluorescence as MST signal is plotted against increasing LeEIN2^462–1316 (●) concentrations as described. […]

B1: LeEIN2^462–1316: recombinant C-terminal part of tomato EIN2, expressed in E. coli (protein)
chain: LKSASSRFDAQAFLQTHVPEPYSECNQLGASNAMFGLVEGSSQKQEGAFHVEKSLVSHPDLSTKDPDQLLPESLLDFEKVHQLATIDESKSETTFSAPAVVHPEVPVSAGASPSVKSVCNEVSGVVSVDTSVFNTETVDVAEKTLRIEGDMANDRDDGDSWEEPEEAIKGVSENAQSFISDGPGSYKSLSGKLEDTGSGTGSLSRLAGLGRAARRQLTEALNEFWGQLFDYHGVATAEAKSKKLDIILGLDSKMNPKPAPASLKVESSAYIPSGSARIPEPLINSHVYSPKQQFASNIVDSAYRVPKEPSSTSSMWSNHMKLVGAYVQSSNSNMLDSGERRYSSMRIPATSAGYDQQPATVHGYQITAYLNQLAKERGSDYLNGQLESPSPRSVSSLTSNYAEPLARVSGQKPQSGVSSRAPPGFGNVPVGRNNSMQPTNTTSVDHSSTETAESVAGSANSKKYYSLPDISGRYVPRQDSIVSDARAQWYNSMGFGQSGGRSTYEQAYMSGSLRAGGPQRYEHSPKVCRDAFSLQYSSNSGTGSLWSRQPFEQFGVAGKPDVGSGDHGTVLSSSAQESTSTVDLEAKLLQSFRSCIVKLLKLEGSEWLFRQDDGADEDLIGRIAAREKFLYEAETREISRLTNIGESHFSSNRKPGSAPKPEEMDYTKFLVMSVPHCGEGCVWKVDLIISFGVWCIHRILELSLMESRPELWGKYTYVLNRLQGIVDLAFSKPHSPTSHCFCLQIPAGRQQKASPPPISNGNLPPQAKQGRGKCTTAAMLLEMIKDVETAISCRKGRTGTAAGDVAFPKGKENLASVLKRYKRRLSNKPVGNQEVAGVAGPRKVTLSASSPPFVL
modifications: unlabeled in the MST titration of labeled LeETR1; Alexa Fluor 488 label in the reverse MST titration; Alexa Fluor 568 succinimidyl-ester label in the FRET assay; left off: His10, end not stated, state
notes: recombinant C-terminal part of tomato EIN2, expressed in E. coli
Kd: 619 nM
